# Measurements reported in patent publication US20240261333A1, “NOVEL TARGETS FOR ENHANCING ANTI-TUMOR IMMUNITY” (THE BROAD INSTITUTE, INC., priority 2021, published 2024).
# T1: B3GNT2 (Homo sapiens, UniProt Q9NY97)
# T1 construct: The respective ORFs of candidate genes [CD274 (NM_014143), MCL1 (NM_021960), JUNB (NM_002229), and B3GNT2 (NM_006577)] were synthesized; expressed in transfected cells; host or cells: A375 melanoma cells (lentiviral ORF overexpression)
# T1 sequence (Q9NY97 1-397): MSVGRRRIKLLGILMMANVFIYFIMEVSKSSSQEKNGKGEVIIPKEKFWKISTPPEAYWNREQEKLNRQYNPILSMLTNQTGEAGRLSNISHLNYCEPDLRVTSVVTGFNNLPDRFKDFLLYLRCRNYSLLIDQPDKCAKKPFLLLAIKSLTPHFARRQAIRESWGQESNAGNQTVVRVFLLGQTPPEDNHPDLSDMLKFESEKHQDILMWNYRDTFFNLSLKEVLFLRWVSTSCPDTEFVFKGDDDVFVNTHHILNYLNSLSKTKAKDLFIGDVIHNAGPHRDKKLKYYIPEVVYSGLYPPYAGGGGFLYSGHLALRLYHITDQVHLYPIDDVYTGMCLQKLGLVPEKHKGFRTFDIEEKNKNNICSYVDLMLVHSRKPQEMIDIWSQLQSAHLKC
# Target: T1, B3GNT2
# Assay: Co-IP of FLAG-tagged B3GNT2 followed by mass spectrometry
# Assay type: cell-based
# Parameters: C-term IgG / C-term flag: unit not given here
# Settings: mass spectrometry count, unit not given; for C-term flag / N-term FLAG: Co-IP with FLAG antibody; for C-term flag / C-term IgG: C-terminally FLAG-tagged B3GNT2; for N-term FLAG / N-term IgG: N-terminally FLAG-tagged B3GNT2; for C-term IgG / N-term IgG: Co-IP with IgG control antibody
# How it was run: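 FLAG-tagged B3GNT2 immunoprecipitated from cell lysate (HEPES, 1% Triton X-100, 150 mM NaCl) with anti-FLAG versus […], overnight at 4° C, then captured on Protein A/G magnetic beads for 4 h. Two biological replicates per condition. Peptides fractionated and analyzed by nano-LC on an Orbitrap Elite in data-dependent mode.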
molecule,measurement,value
"ZC3HAV1 (protein, UniProt Q7Z2W4 2-902, looked up) Zinc finger CCCH-type …: ADPEVCCFITKILCAHGGRMALDALLQEIALSEPQLCEVLQVAGPDRFVVLETGGEAGITRSVVATTRARVCRRKYCQRPCDNLHLCKLNLLGRCNYSQSERNLCKYSHEVLSEENFKVLKNHELSGLNKEELAVLLLQSDPFFMPEICKSYKGEGRQQICNQQPPCSRLHICDHFTRGNCRFPNCLRSHNLMDRKVLAIMREHGLNPDVVQNIQDICNSKHMQKNPPGPRAPSSHRRNMAYRARSKSRDRFFQGSQEFLASASASAERSCTPSPDQISHRASLEDAPVDDLTRKFTYLGSQDRARPPSGSSKATDLGGTSQAGTSQRFLENGSQEDLLHGNPGSTYLASNSTSAPNWKSLTSWTNDQGARRKTVFSPTLPAARSSLGSLQTPEAVTTRKGTGLLSSDYRIINGKSGTQDIQPGPLFNNNADGVATDITSTRSLNYKSTSSGHREISSPRIQDAGPASRDVQATGRIADDADPRVALVNDSLSDVTSTTSSRVDDHDSEEICLDHLCKGCPLNGSCSKVHFHLPYRWQMLIGKTWTDFEHMETIEKGYCNPGIHLCSVGSYTINFRVMSCDSFPIRRLSTPSSVTKPANSVFTTKWIWYWKNESGTWIQYGEEKDKRKNSNVDSSYLESLYQSCPRGVVPFQAGSRNYELSFQGMIQTNIASKTQKDVIRRPTFVPQWYVQQMKRGPDHQPAKTSSVSLTATFRPQEDFCFLSSKKYKLSEIHHLHPEYVRVSEHFKASMKNFKIEKIKKIENSELLDKFTWKKSQMKEEGKLLFYATSRAYVESICSNNFDSFLHETHENKYGKGIYFAKDAIYSHKNCPYDAKNVVMFVAQVLVGKFTEGNITYTSPPPQFDSCVDTRSNPSVFVIFQKDQVYPQYVIEYTEDKACVIS",C-term flag,4
same,N-term FLAG,3
same,C-term IgG,0
same,N-term IgG,0
TUBB6 (protein) MREIVHIQAGQCGNQIGTKFWEVISDEHGIDPAGGYVGDSALQLERINVYYNESSSQKYVPRAALVDLEPGTMDSVRSGPFGQLFRPDNFIFGQTGAGNNWAKGHYTEGAELVDAVLDVVRKECEHCDCLQGFQLTHSLGGGTGSGMGTLLISKIREEFPDRIMNTFSVMPSPKVSDTVVEPYNATLSVHQLVENTDETYCIDNEALYDICFRTLKLTTPTYGDLNHLVSATMSGVTTSLRFPGQLNADLRKLAVNMVPFPRLHFFMPGFAPLTSRGSQQYRALTVPELTQQMFDARNMMAACDPRHGRYLTVATVFRGPMSMKEVDEQMLAIQSKNSSYFVEWIPNNVKVAVCDIPPRGLKMASTFIGNSTAIQELFKRISEQFSAMFRRKAFLHWFTGEGMDEMEFTEAESNMNDLVSEYQQYQDATANDGEEAFEDEEEEIDG,C-term flag,42
same,N-term FLAG,63
same,C-term IgG,0
same,N-term IgG,0
ILF3 (protein) MRPMRIFVNDDRHVMAKHSSVYPTQEELEAVQNMVSHTERALKAVSDWIDEQEKGSSEQAESDNMDVPPEDDSKEGAGEQKTEHMTRTLRGVMRVGLVAKGLLLKGDLDLELVLLCKEKPTTALLDKVADNLAIQLAAVTEDKYEILQSVDDAAIVIKNTKEPPLSLTIHLTSPVVREEMEKVLAGETLSVNDPPDVLDRQKCLAALASLRHAKWFQARANGLKSCVIVIRVLRDLCTRVPTWGPLRGWPLELLCEKSIGTANRPMGAGEALRRVLECLASGIVMPDGSGIYDPCEKEATDAIGHLDRQQREDITQSAQHALRLAAFGQLHKVLGMDPLPSKMPKKPKNENPVDYTVQIPPSTTYAITPMKRPMEEDGEEKSPSKKKKKIQKKEEKAEPPQAMNALMRLNQLKPGLQYKLVSQTGPVHAPIFTMSVEVDGNSFEASGPSKKTAKLHVAVKVLQDMGLPTGAEGRDSSKGEDSAEETEAKPAVVAPAPVVEAVSTPSAAFPSDATAEQGPILTKHGKNPVMELNEKRRGLKYELISETGGSHDKRFVMEVEVDGQKFQGAGSNKKVAKAYAALAALEKLFPDTPLALDANKKKRAPVPVRGGPKFAAKPHNPGFGMGGPMHNEVPPPPNLRGRGRGGSIRGRGRGRGFGGANHGGYMNAGAGYGSYGYGGNSATAGYSQFYSNGGHSGNASGGGGGGGGGSSGYGSYYQGDNYNSPVPPKHAGKKQPHGGQQKPSYGSGYQSHQGQQQSYNQSPYSNYGPPQGKQKGYNHGQGSYSYSNSYNSPGGGGGSDYNYESKFNYSGSGGRSGGNSYGSGGASYNPGSHGGYGGGSGGGSSYQGKQGGYSQSNYNSPGSGQNYSGPPSSYQSSQGGYGRNADHSMNYQYR,C-term flag,5
same,N-term FLAG,2
same,C-term IgG,0
same,N-term IgG,0
